Source: patent publication US20210163595A1

Columns and labels:
[1] = target: human PD-1 expressed on the cell surface (human) (UniProt Q15116); assay: flow cytometry on CHO cells expressing human PD-1; negative control; fit value of a flat curve; no unit in the table
[2] = target: cyno PD-1 expressed on cells (cynomolgus monkey) (UniProt B0LAJ3); assay: flow cytometry on CHO cells expressing cyno PD-1; negative control; fit value of a flat curve; no unit in the table
[3] = target: human PD-1 expressed on the cell surface (human) (UniProt Q15116); assay: cell-based or functional assay

Sequence of UniProt Q15116 (Q15116 25-198 limits assumed): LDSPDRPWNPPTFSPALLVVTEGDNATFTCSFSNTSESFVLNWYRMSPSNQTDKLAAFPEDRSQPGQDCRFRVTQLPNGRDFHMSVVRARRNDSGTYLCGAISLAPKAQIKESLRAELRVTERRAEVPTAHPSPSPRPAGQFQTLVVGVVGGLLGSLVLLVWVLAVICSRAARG
Sequence of UniProt B0LAJ3 (B0LAJ3 entry or part of it limits assumed): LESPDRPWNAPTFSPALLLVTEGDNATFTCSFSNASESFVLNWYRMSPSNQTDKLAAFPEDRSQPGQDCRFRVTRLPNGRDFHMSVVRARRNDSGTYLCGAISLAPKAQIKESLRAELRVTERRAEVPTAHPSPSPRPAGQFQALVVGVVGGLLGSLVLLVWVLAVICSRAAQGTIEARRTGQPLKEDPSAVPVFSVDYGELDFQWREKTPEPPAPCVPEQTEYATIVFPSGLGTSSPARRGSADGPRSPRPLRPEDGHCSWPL

LogEC50 [1]	LogEC50 [2]	IL-17 and IFN-γ levels, human whole blood assay (EC50) [3] [nM]	Substance
-7.75	-6.89	–	huIgG1 Fc
–	–	> 100	human IgG Fc fragment
